In the data set the target is cardiac troponin I (cTnI, TnI) (UniProt P19429 2-210). Briefly: fluorescence decrease of surface-immobilized FAM aptamer; aptamer on gold electrode; pH 7.4; 0.02x PBS stated for the chip rinse; aptamer immobilized at 24 °C for 24 h; binding temperature not given. To be noted: label: 3' FAM; single strand.
Sequence of cardiac troponin I (cTnI, TnI) (P19429 2-210): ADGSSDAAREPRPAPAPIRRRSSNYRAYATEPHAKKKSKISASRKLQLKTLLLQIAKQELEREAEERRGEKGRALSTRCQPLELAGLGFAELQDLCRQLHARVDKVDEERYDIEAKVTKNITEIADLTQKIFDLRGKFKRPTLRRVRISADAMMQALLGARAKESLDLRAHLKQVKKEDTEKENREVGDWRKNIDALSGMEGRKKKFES

As to CGTGCAGTACGCCAACCTTTCTCATGCGCTGCCCCTCTTA (ssDNA, 5' disulfide (S-S), reduced with TCEP to thiol; immobilized on gold) [Tro4 aptamer], the binding result is on record as “binds”.

(Values after article PMC12109899, “Aptamer-Based Planar Electric Double-Layer Field-Effect Transistor: A Novel Approach for Sensitive Troponin I Sensing”.)
